US20240218067A1 (ONCOC4, published 2024)

T1: human Siglec-10 on the cell surface (human, UniProt Q96LC7 17-697)
T1 sequence (looked up): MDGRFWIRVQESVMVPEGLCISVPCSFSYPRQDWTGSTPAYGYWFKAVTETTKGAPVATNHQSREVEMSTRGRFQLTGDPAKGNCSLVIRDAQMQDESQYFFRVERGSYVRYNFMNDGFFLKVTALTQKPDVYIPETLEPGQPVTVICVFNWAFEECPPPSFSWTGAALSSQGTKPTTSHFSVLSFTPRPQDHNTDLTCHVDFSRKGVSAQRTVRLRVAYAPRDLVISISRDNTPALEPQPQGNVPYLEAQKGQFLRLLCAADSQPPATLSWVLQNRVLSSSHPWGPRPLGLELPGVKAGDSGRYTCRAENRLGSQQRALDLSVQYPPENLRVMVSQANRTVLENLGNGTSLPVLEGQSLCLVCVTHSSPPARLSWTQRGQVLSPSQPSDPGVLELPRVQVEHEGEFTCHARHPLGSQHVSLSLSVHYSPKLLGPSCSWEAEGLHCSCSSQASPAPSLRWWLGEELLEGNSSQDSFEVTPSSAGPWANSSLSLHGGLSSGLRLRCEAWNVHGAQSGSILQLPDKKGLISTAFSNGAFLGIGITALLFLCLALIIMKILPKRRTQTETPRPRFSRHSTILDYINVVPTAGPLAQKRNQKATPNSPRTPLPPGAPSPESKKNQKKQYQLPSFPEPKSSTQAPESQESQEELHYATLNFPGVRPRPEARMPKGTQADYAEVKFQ

T2: Siglec-10 (Biacore analysis) (UniProt Q96LC7 17-546, limits assumed)
T2 sequence (looked up): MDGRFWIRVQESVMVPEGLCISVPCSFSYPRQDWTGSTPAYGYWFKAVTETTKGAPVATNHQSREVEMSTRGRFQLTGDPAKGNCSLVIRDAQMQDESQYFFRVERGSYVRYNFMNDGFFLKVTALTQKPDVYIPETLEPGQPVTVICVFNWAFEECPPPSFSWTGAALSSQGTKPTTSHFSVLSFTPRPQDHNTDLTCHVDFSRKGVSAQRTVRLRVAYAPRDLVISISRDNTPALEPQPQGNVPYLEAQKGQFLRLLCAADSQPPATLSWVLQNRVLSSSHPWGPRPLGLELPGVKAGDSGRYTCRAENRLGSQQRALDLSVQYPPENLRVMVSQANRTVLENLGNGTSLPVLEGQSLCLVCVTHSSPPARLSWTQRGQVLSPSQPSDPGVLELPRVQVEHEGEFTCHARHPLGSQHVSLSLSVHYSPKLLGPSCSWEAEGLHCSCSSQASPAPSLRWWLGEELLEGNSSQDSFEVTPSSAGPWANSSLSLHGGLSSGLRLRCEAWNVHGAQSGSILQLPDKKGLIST


How the values were obtained:
[1] = biological target: cynomolgus Siglec-10 on the cell surface (cynomolgus); assay: flow cytometry on live expi293 cells transfected with cynomolgus Siglec-10; FMO median 13824
[2] = biological target: T1, human Siglec-10 on the cell surface; assay: flow cytometry, human PBMC, B cells, fluorescently labeled ONC-841 (upper left quadrant)
[3] = biological target: marmoset Siglec-10 on expi293 cells (marmoset) (UniProt F6WZ94); assay: flow cytometry on live expi293 cells transfected with marmoset Siglec-10; FMO median 13762
[4] = biological target: T1, human Siglec-10 on the cell surface; assay: flow cytometry, human PBMC, monocytes, fluorescently labeled ONC-841 (upper left quadrant)
[5] = biological target: T1, human Siglec-10 on the cell surface; assay: cell-based or functional assay
[6] = biological target: T1, human Siglec-10 on the cell surface; assay: flow cytometry, human PBMC, CD14hi monocytes, without excess hIgG; FMO median 1244
[7] = biological target: human Siglec-10 extracellular domain recombinant protein (His or Fc tag) (human) (UniProt Q96LC7); assay: ELISA, Siglec protein coated, biotinylated ONC-841, avidin-HRP
[8] = biological target: rhesus Siglec-10 on expi293 cells (rhesus) (UniProt F7GW74); assay: flow cytometry on live expi293 cells transfected with rhesus Siglec-10; FMO median 13039
[9] = biological target: recombinant His-tagged human Siglec-10 (ACROBiosystems) (human) (UniProt Q96LC7); assay: ELISA: His-tagged human Siglec-10 coated, ONC-841 detected with goat anti-human antibody
[10] = biological target: cynomolgus Siglec-10 on the cell surface (cynomolgus); assay: flow cytometry, cynomolgus PBMC, CD14hi monocytes, without excess hIgG
[11] = biological target: human Siglec-10 extracellular domain recombinant protein (His or Fc tag) (human) (UniProt Q96LC7); assay: ELISA: Siglec-10 His coated, biotinylated ONC-841, avidin-HRP
[12] = biological target: T1, human Siglec-10 on the cell surface; assay: flow cytometry on live expi293 cells transfected with human Siglec-10; FMO median 14075
[13] = biological target: T1, human Siglec-10 on the cell surface; assay: flow cytometry, Jurkat cells expressing human Siglec-10
[14] = biological target: T2, Siglec-10 (Biacore analysis); assay: Biacore (data from a separate experiment); data from a separate experiment
[15] = biological target: T2, Siglec-10 (Biacore analysis); assay: Biacore

Sequence of cynomolgus Siglec-10 on the cell surface (cynomolgus) (chain, as listed by the source): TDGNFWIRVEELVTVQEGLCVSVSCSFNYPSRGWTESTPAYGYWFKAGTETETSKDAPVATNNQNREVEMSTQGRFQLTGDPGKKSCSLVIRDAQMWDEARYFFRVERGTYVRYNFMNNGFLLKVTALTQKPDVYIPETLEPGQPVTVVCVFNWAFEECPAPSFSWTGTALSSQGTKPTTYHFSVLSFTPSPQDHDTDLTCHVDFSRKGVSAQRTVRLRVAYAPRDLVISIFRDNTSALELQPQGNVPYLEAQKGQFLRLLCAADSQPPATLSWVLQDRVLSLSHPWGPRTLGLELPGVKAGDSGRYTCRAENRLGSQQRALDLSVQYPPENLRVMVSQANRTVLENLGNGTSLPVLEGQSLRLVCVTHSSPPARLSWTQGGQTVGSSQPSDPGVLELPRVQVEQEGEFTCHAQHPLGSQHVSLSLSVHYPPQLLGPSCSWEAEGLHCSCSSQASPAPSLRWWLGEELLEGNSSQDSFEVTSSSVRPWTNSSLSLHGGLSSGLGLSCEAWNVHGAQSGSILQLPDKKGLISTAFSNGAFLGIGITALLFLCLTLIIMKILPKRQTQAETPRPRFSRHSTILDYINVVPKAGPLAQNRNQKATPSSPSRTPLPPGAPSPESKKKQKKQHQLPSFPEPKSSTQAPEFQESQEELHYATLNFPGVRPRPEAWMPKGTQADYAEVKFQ
Sequence of rhesus Siglec-10 on expi293 cells (rhesus) (F7GW74 entry or part of it): as the sequence (chain, as listed by the source) above, with N4S, E11K, T14M, R306H, R486G, E568D, F645S counted along it
Sequence of marmoset Siglec-10 on expi293 cells (marmoset) (F6WZ94 entry or part of it): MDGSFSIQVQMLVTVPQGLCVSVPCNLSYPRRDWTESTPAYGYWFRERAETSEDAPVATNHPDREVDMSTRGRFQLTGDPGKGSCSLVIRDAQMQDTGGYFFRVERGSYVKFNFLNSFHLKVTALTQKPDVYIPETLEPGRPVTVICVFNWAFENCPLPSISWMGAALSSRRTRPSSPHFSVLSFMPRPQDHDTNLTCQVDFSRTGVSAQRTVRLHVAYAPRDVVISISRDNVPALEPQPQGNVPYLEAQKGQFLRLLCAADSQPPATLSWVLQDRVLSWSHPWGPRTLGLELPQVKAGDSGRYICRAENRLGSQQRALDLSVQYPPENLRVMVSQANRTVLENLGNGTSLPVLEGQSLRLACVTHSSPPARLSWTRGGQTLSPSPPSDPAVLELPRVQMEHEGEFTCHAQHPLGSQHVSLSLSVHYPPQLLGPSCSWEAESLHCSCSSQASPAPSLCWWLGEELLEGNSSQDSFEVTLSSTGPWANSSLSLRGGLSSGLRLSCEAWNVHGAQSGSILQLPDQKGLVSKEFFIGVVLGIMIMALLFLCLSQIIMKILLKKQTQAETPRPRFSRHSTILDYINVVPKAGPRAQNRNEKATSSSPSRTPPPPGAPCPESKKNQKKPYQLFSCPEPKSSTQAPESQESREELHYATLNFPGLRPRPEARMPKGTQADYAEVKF

Molecule	Median : Comp-APC-A [1]	% positive cells [2] [%]	Median : Comp-APC-A [3]	% positive cells [4] [%]	EC50, ADCC reporter activity of anti-CD20 against Raji cells [5] [µg/mL]	EC50, ADCC reporter activity of cetuximab against B16 cells expressing human EGFR [5] [µg/mL]	IC50 (so in the source), ADCC reporter activity of ONC-392 against CTLA-4 expressing CHO cells [5] [µg/mL]	Median : Comp-Alexa Fluor 488-A [6]	Kd [7] [µg/mL]	Median : Comp-APC-A [8]	EC50 (read off the curve) [9] [µg/mL]	Median : Comp-Alexa Fluor 488-A [10]	EC50 (read off the curve) [11] [µg/mL]	Median : Comp-APC-A [12]	EC50 [13] [µg/mL]	Kd [14] [nM]	ADCC EC50 [5] [µg/mL]	koff [15] [s⁻¹]	kon [15] [M⁻¹ s⁻¹]	Kd [15] [nM]
ONC-841 (antibody)	14500	51	14200	79	0.5	0.3	0.08	7250	0.0225	13100	0.009	1770	0.02	64200						
humanized 31F11 clone #21 (antibody, V domains shown, also called hu-VHv1VLv2) VH: QVTLKESGPALVKPTQTLTLTCTFSGFSLSTSGMGLSWIRQPPGKALEWLAHIYWDDDKRYNPSLKSRLTISKDTSKNQVVLTMTNMDPVDTATYYCVRGLYGNWFFDVWGQGTTVTVSS VL: DIVMTQSPATLSVSPGERATLSCKASQNVGTAVAWYQQKPGQAPRLLIYSASNRYTGVPARFSGSGSGTEFTLTISSLQSEDFAVYFCQQYSSYPLTFGGGTKVEIK															0.242	2.17	0.153	0.000589	272000	
humanized 31F11 clone #22 (antibody, V domains shown, also called hu-VHv2VLv2) VH: QVTLKESGPALVKPTQTLTLTCTFSGFSLSTSGMGLSWIRQPPGKALEWLAHIYWDDDKRYNPSLKSRLTISKDTSKNQVVLTMTNMDPVDTATYYCVRGLYGNWFFDVWGAGTTVTVSS VL: DIVMTQSPATLSVSPGERATLSCKASQNVGTAVAWYQQKPGQAPRLLIYSASNRYTGVPARFSGSGSGTEFTLTISSLQSEDFAVYFCQQYSSYPLTFGGGTKVEIK															0.237		0.266	0.000202	164000	1.23
humanized 31F11 clone #23 (antibody, V domains shown) VH: QVTLKESGPALVKPTQTLTLTCTFSGFSLSTSGMGLSWIRQPPGKALEWLAHIYWDDDKRYNPSLKSRLTISKDTSKNQVVLTMTNMDPVDTATYYCARGLYGNWFFDVWGQGTTVTVSS VL: DIVMTQSPATLSVSPGERATLSCKASQNVGTAVAWYQQKPGQAPRLLIYSASNRYTGVPARFSGSGSGTEFTLTISSLQSEDFAVYFCQQYSSYPLTFGGGTKVEIK															0.237		0.342	0.000197	131000	1.5
